Assay results reported in patent publication US12042530B2, “Target peptides for immunotherapy and diagnostics” (University of Virginia Patent Foundation, priority 2012, dated 2024).
Non-standard residues stand in square brackets, D forms with d. Residues, ends and D or L forms follow the SMILES beside them. No end group written: not given here. pT = C[C@@H](OP(=O)(O)O)[C@H](N)C(=O)O; pS = N[C@@H](COP(=O)(O)O)C(=O)O

Tests used:
[1] = target: T1, HLA-A*0201 (HLA-A2) peptide complexes (Homo sapiens, UniProt P04439, D140Y/D185E/D98H/E176V/E277Q/G131W/G231S/I119V/I121R/I166T/I218V/L300P/L318F/N151K/N90K/P208A/P217A/Q86G/Q94H/R138H/R169H/T345S); assay: HLA-A*0201 phosphopeptides associated with leukemia samples (isolation of HLA-associated peptides); settings: for Copies/cell class, JY: EBV transformed B lymphoblastoid cell line JY; for Copies/cell class, AML1: acute myeloid leukemia sample AML1; for Copies/cell class, CLL1: chronic lymphocytic leukemia sample CLL1; for Copies/cell class, B Cell: healthy B cells; for Copies/cell class, T Cell: healthy T cells; for Copies/cell class, MCL: mantle cell lymphoma sample
T1 construct: endogenous in cells; host or cells: JY B-lymphoblastoid line; primary CLL, MCL, AML, ALL samples; healthy splenic T and B cells
Description: To identify naturally processed tumor-associated phosphopeptides, HLA-A*0201 (HLA-A2) and HLA-B*0702 (HLA-B7) peptide complexes from four (4) chronic lymphocytic leukemia (CLL) tumor samples, a mantle cell lymphoma sample (MCL), one acute lymphoblastic leukemia (ALL), and an acute myeloid leukemia (AML) sample, in addition to healthy splenic T and B-cells and the cultured lymphoblastoid cell line JY were isolated. These efforts yielded 10 HLA-A2-restricted and 86 HLA-B7-restricted phosphopeptide antigens (see Tables 6 and 7).
All cell lines were grown at 37° C. with 5% CO2 in growth medium consisting of RPMI 1640 supplemented with 10% FCS and two mM L-glutamine. Blood or leukapheresis samples were taken from patients with high-burden leukemia in heparin. Tumor cells were recovered by layering the blood over density gradient (Ficoll) and collecting the tumor layer following centrifugation. The tumor was washed in tris-buffered saline (TBS). The purity of the tumor was assessed using flow cytometry and was >98% pure in all cases. For healthy T and B-cell populations, a normal spleen sample processed and tonsil sample was collected and lymphocytes released through mechanical disruption. Mononuclear cells were isolated using a density gradient and 10^9 T cells isolated using anti-CD19 or anti-CD3 microbeads (Miltenyi Biotec Inc., Auburn, California, United States of America) with purity >98% were obtained. Bone marrow sample was obtained from an elective orthopedic procedure and red cell-depleted using hypotonic lysis. This sample was not processed further.
Class I MHC molecules were immunoaffinity purified from the JY cell line or from primary tumor samples, and their associated peptides were extracted as previously described in Zarling et al., 2006. Approximately 1.2-14×10^9 cells were lysed in a solution containing 20 mM Tris-HCl (pH 8.0), 150 mM NaCl, 1% CHAPS, one mM PMSF, five μg/mL aprotinin, 10 μg/mL leupeptin, 10 μg/mL pepstatin A, 1 μg/ml calyculin A, and phosphatase inhibitor (cocktails I and II; Sigma-Aldrich). The mixture was subjected to centrifugation and the resulting supernatant was passed over protein A sepharose pre-loaded with the HLA-A2-specific antibody BB7.2 or HLA-B7-specific antibody MEL Peptides were eluted from the purified class I MHC molecules with 10% acetic acid.

[2] = tested on: melanoma cells; assay: T cell recognition of GSK-3β- and proteasome-inhibited melanoma cells; format: cell-based, human
Procedure: Surface peptide-MHC complexes were denatured from the cells using a mild acid buffer as previously described (Robila et al., 2008) and then allowed to re-express peptide-MHC molecules in the presence of BIO, MeBIO, or 5 μM lactacystin for 12 hours. T cell recognition of the cells was evaluated after 5 hours incubation with pS33-βcat-specific T cells.

[3] = tested on: phosphoS33-β-catenin; assay: Western blot of phosphoS33-β-catenin and β-catenin; format: cell-based, human; settings: BIO in the presence of lactacystin
Procedure: Lysates were prepared from ˜80% confluent cells in buffer containing 2% Triton X 100 and protease and phosphatase inhibitors. Samples were separated on 8% SDS-PAGE (Thermo Fischer Scientific Inc., Waltham, Massachusetts, United States of America) and transferred to PVDF membranes (Millipore Immobilon-FL, 0.45 μm; Millipore Corporation, Billerica, Massachusetts, United States of America). Blots were probed with phosphoS33-β-catenin, β-catenin, and GAPDH antibodies overnight at 4° C. and developed by enhanced chemiluminescence (Millipore). Films were scanned and integrated density values determined using AlphaEase software and normalized to values obtained for GAPDH. In some cases, GSK-3 activity was inhibited using 5 μg BIO ((2′Z, 3′E)-6-Bromoindirubin-3′-oxime) and proteasomal degradation was blocked with 10 μg lactacystin (Calbiochem) before cells were lysed.

[4] = target: T2, HLA A*0201 (Homo sapiens, UniProt P04439, D140Y/D185E/D98H/E176V/E277Q/G131W/G231S/I119V/I121R/I166T/I218V/L300P/L318F/N151K/N90K/P208A/P217A/Q86G/Q94H/R138H/R169H/T345S); assay: HLA-A*0201 peptide-binding competition assay; settings: for IC50: FIG. 2F, three independent experiments, triplicate wells, read-out: IC50, competition with a standard peptide for HLA-A2 binding (converted)
Procedure: Affinity purified HLA-A*0201 was incubated with iodinated peptide […] (SEQ ID NO: 2379), graded doses of test peptides, and β2M as previously described (Zarling et al., 2000). Peptide-MHC complexes were captured in W6/32-coated ELISA plates after 48 hours and the dose at which test peptides inhibited binding of the indicator peptide by 50% (IC50) was calculated.

[5] = tested on: PBMCs; assay: Memory T cell response, IFNγ ELISpot, healthy A2 positive donors; format: cell-based, human; settings: for Day 7 ELISpot, donor alpha: healthy A2 positive donor alpha; for Day 7 ELISpot, donor beta: healthy A2 positive donor beta; for Memory T cell response, in words: healthy donors / patient; for Day 7 ELISpot, donor one: healthy A2 positive donor one
[6] = target: T2, HLA A*0201; assay: Binding to HLA A*0201 (statement)
[7] = tested on: CD8+ T cells; assay: ELISpot T cell recognition assay, healthy donors, leukemia-associated phosphopeptides; format: cell-based, human; settings: 10 HLA-A2+ and 10 HLA-B7+ healthy individuals, 7 day cultures
Procedure: Immunity against 76 HLA-B7 and 10 HLA-A2 leukemia-associated phosphopeptide antigens was assessed in 10 HLA-A2^+ and 10 HLA-B7^+ healthy individuals (see FIG. 12A).
For ELISpot analysis, PBMCs and CD8^+ T cells were isolated fresh from healthy donors and patients. 1×10^6 PBMCs were isolated from both AML patients and healthy donors and resuspended in AIM-V media (10% human AB serum) in a 96 well plate. Peptide or phosphopeptides were added individually at 10 μg/ml and placed at 37° C. in CO2 incubator for 7 days. Cells were then harvested, washed 4 times, and re-challenged with phosphopeptides, peptides, or anti-CD3 (OKT3, 100 ng/ml, Mabtech, Inc., Mariemont, Ohio, United States of America) as per the manufacturer's instructions. Individual cytokine-producing cells were identified as dark spots after a 15 minute reaction with 5-bromo-4-chloro-3-indolyl phosphate and NBT by means of an alkaline phosphatase conjugate substrate (Mabtech).

[8] = target: HLA A*0301 (Homo sapiens, UniProt P04439); assay: Binding to HLA A*0301 (statement)

“459 (RVASPTSGV; SITE (1)..(109: One or more of the listed amino acids can be phosphorylated as set forth in the Tables; listed as Homo sapiens) [compound 459]” was tested, and the “Copies/cell class, CLL2” value [1] was 1 (1 indicates <1 copy/cell), the “Copies/cell class, CLL3” value [1] was 0 and the “Copies/cell class, CLL4” value [1] was 0. The “Copies/cell class, JY” value [1] was 0, the “Copies/cell class, AML1” value [1] was 0 and the “Copies/cell class, CLL1” value [1] was 1 (1 indicates <1 copy/cell). The “Copies/cell class, B Cell” value [1] was 0, the “Copies/cell class, T Cell” value [1] was 0 and the “Copies/cell class, MCL” value [1] was 1 (1 indicates <1 copy/cell).
For “460 (SMTRSPPRV; SITE (1)..(9): One or more of the listed amino acids can be phosphorylated as set forth in the Tables; listed as Homo sapiens) [compound 460]”, the “Copies/cell class, CLL2” value [1] was 0, the “Copies/cell class, CLL3” value [1] was 1 (1 indicates <1 copy/cell) and the “Copies/cell class, CLL4” value [1] was 0. The “Copies/cell class, JY” value [1] was 0, the “Copies/cell class, AML1” value [1] was 0 and the “Copies/cell class, CLL1” value [1] was 0. For the same compound, the “Copies/cell class, B Cell” value [1] was 0, the “Copies/cell class, T Cell” value [1] was 0 and the “Copies/cell class, MCL” value [1] was 0.
With “464 (VMIGSPKKV; SITE (1)..(9): One or more of the listed amino acids can be phosphorylated as set forth in the Tables; listed as Homo sapiens) [compound 464]” the “Copies/cell class, CLL2” value [1] was 0, the “Copies/cell class, CLL3” value [1] was 0 and the “Copies/cell class, CLL4” value [1] was 0. For the same compound, the “Copies/cell class, JY” value [1] was 0, the “Copies/cell class, AML1” value [1] was 0 and the “Copies/cell class, CLL1” value [1] was 0. The “Copies/cell class, B Cell” value [1] was 0, the “Copies/cell class, T Cell” value [1] was 0 and the “Copies/cell class, MCL” value [1] was 1 (1 indicates <1 copy/cell).
With O=C1Nc2cc(Br)ccc2/C1=C1/Nc2ccccc2/C1=N\O [BIO, (2′Z, 3′E)-6-Bromoindirubin-3′-oxime] the “pS33-βcat-specific T cell recognition of melanoma cells” value ([2]; DM331 and SLM2, re-expression of peptide-MHC in presence of inhibitor (5 μM)) was “completely abrogated recognition of melanoma cells”, the “T cell recognition of Tyr369” value ([2]; control epitope) was “unaffected” and the “Amount of phosphoS33-β-catenin in melanoma cells” value [3] was “significantly diminished”.
CC[C@H](C)[C@H](NC(=O)CNC(=O)[C@H](COP(=O)(O)O)NC(=O)[C@H](CC(=O)O)NC(=O)[C@H](CC(C)C)NC(=O)[C@@H](N)Cc1ccc(O)cc1)C(=O)N[C@@H](Cc1c[nH]cn1)C(=O)N[C@@H](CO)C(=O)NCC(=O)N[C@@H](C)C(=O)O [SEQ ID NO: 427, YLD(pS)GIHSGA] (H-YLD[pS]GIHSGA-OH) was tested, and the IC50 [4] was 298 nM.
With CC[C@H](C)[C@H](NC(=O)CNC(=O)[C@H](COP(=O)(O)O)NC(=O)[C@H](CC(=O)O)NC(=O)[C@H](CC(C)C)NC(=O)[C@@H](N)Cc1ccc(O)cc1)C(=O)N[C@@H](Cc1c[nH]cn1)C(=O)N[C@@H](CO)C(=O)NCC(=O)N[C@H](C(=O)O)C(C)C [SEQ ID NO: 2080, YLDsGIHSGV] (H-YLD[pS]GIHSGV-OH) the IC50 [4] was 36.4 nM.
In the case of CC[C@H](C)[C@H](NC(=O)CNC(=O)[C@H](COP(=O)(O)O)NC(=O)[C@H](CC(=O)O)NC(=O)[C@H](CC(C)C)NC(=O)[C@@H](N)Cc1ccc(O)cc1)C(=O)N[C@@H](Cc1c[nH]cn1)C(=O)N[C@@H](COP(=O)(O)O)C(=O)NCC(=O)N[C@@H](C)C(=O)O [pS33/S37-βcat30] (H-YLD[pS]GIH[pS]GA-OH), the IC50 [4] is reported as 575 nM.
With “APRRYsSSL (APRRY[pS]SSL; listed as Homo sapiens) [SEQ ID NO: 267]” the “Day 7 ELISpot, donor alpha” value [5] was “++ (25-99 spots)”, the “Day 7 ELISpot, donor beta” value [5] was “+ (3-24 spots)” and the “Memory T cell response, in words” value [5] was “Two healthy donors (HD) responded”. The “Binding to HLA A*0201” value [6] was “does not bind to A*0201”.
“IMDRtPEKL (IMDR[pT]PEKL; listed as Homo sapiens) [SEQ ID NO: 398]” was tested, and the “Day 7 ELISpot, donor alpha” value [5] was “+++ (>100 spots)” and the “Day 7 ELISpot, donor one” value [5] was “+ (3-24 spots)”.
With “KLIDRTE(pS)L (KLIDRTE[pS]L; listed as Homo sapiens) [SEQ ID NO: 440]” the “Immune response in healthy donors, in words” value [7] was “not immunogenic”.
With “RQA(pS)IELPSM (RQA[pS]IELPSM; listed as Homo sapiens) [SEQ ID NO: 451]” the “Immune response in healthy donors, in words” value [7] was “not immunogenic”.
“RTFpSPTYGL (RTF[pS]PTYGL; listed as Homo sapiens) [SEQ ID NO: 457]” was tested, and the “Day 7 ELISpot, donor one” value [5] was “+ (3-24 spots)” and the “Day 7 ELISpot, donor three” value ([5]; healthy A2 positive donor three) was “+ (3-24 spots)”.
For “RVAsPTSGVK (RVA[pS]PTSGVK; listed as Homo sapiens) [SEQ ID NO: 65]”, the “Binding to HLA A*0201” value [6] was “Neither of the A*0301 peptides bind to A*0201” and the “Binding to / presentation by HLA A*0301” value [8] was “bind to HLA A*0301”.
“RVAsPTSGVKR (RVA[pS]PTSGVKR; listed as Homo sapiens) [SEQ ID NO: 66]” was tested, and the “Binding to HLA A*0201” value [6] was “Neither of the A*0301 peptides bind to A*0201” and the “Binding to / presentation by HLA A*0301” value [8] was “bind to HLA A*0301”.
With “TPRVTGGGAM (Artificially synthesized cytomegalovirus peptide) [TPR (CMV), cytomegalovirus (CMV) peptide, reference compound]” the “Day 7 ELISpot, donor alpha” value [5] was “+++ (>100 spots)” and the “Day 7 ELISpot, donor one” value [5] was “+ (3-24 spots)”.
“VMIGpSPKKV (VMIG[pS]PKKV; listed as Homo sapiens) [SEQ ID NO: 426]” was tested, and the “Day 7 ELISpot, donor alpha” value [5] was “++ (25-99 spots)”, the “Day 7 ELISpot, donor beta” value [5] was “+ (3-24 spots)” and the “Day 7 ELISpot, donor one” value [5] was “++ (25-99 spots)”. For the same compound, the “Day 7 ELISpot, donor two” value ([5]; healthy A2 positive donor two) was “++ (25-99 spots)”.
For VMIGsPKKL, the “HLA-A*0201 (MHC) binding affinity, in words” value [4] was “weak MHC binding affinity” and the “Memory T cell response, in words” value [5] was “strong phosphopeptide-specific memory T cell response”.
